In patent US20150056222A1 (Regeneron, published 2015):

T1: human prolactin receptor (PRLR) on cells (human, UniProt P16471 25-622)
T1 construct: T47D, T47D#11 and MCF7 carry the endogenous receptor; also called hPRLR; HEK293/hPRLR
T1 sequence: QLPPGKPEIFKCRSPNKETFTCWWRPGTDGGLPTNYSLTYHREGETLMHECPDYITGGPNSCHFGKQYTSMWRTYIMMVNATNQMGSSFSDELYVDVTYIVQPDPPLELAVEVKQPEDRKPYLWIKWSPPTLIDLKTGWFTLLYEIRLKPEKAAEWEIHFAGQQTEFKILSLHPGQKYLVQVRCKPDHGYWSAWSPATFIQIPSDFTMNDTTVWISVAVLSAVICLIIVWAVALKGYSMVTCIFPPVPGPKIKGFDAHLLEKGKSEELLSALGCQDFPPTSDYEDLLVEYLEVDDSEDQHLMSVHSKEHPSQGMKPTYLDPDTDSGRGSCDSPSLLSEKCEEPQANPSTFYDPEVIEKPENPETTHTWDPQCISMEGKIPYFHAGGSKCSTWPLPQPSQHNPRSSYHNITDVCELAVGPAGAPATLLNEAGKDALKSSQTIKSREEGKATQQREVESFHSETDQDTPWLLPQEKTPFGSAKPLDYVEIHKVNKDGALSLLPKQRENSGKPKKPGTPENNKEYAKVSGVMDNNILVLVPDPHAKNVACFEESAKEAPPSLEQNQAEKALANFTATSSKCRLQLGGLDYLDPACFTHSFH

T2: hPRLR.mFc (soluble dimeric human PRLR) (human)
T2 construct: dimeric construct
T2 chain: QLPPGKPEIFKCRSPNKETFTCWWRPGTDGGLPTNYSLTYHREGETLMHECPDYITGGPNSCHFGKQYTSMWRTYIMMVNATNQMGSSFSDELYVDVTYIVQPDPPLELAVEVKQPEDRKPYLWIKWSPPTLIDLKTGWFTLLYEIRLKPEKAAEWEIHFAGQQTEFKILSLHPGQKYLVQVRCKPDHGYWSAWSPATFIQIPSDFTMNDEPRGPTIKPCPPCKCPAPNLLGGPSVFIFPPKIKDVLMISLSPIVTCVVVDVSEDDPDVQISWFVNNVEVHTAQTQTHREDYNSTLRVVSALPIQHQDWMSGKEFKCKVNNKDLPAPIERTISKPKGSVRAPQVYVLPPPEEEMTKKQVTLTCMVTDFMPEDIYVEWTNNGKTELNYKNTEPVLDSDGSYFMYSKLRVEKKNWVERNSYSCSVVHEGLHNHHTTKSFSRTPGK

T3: mfPRLR.mmh (soluble monomeric macaca fascicularis PRLR) (macaca fascicularis)
T3 construct: soluble monomeric construct; also called macaca fascicularis (mf) PRLR.mmh
T3 chain: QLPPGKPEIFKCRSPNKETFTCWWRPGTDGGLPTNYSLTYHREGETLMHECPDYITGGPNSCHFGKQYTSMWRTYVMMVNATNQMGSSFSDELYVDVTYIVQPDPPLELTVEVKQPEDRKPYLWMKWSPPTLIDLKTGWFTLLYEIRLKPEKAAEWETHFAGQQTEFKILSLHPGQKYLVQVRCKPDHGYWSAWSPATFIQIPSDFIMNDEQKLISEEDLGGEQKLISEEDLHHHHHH

T4: hPRLR.mmh (soluble monomeric human PRLR) (human)
T4 construct: soluble monomeric construct
T4 chain: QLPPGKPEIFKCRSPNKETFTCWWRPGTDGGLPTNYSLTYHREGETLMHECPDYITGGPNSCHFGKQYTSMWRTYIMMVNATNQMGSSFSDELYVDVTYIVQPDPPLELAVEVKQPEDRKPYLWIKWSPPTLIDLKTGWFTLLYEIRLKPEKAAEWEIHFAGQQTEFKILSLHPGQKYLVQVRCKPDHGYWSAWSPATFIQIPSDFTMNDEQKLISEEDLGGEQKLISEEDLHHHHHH

T5: monkey (macaca fascicularis) PRLR on HEK293 cells (macaca fascicularis, UniProt A0A2K5WXK1 25-619)
T5 construct: also called mfPRLR; HEK293/mfPRLR
T5 sequence: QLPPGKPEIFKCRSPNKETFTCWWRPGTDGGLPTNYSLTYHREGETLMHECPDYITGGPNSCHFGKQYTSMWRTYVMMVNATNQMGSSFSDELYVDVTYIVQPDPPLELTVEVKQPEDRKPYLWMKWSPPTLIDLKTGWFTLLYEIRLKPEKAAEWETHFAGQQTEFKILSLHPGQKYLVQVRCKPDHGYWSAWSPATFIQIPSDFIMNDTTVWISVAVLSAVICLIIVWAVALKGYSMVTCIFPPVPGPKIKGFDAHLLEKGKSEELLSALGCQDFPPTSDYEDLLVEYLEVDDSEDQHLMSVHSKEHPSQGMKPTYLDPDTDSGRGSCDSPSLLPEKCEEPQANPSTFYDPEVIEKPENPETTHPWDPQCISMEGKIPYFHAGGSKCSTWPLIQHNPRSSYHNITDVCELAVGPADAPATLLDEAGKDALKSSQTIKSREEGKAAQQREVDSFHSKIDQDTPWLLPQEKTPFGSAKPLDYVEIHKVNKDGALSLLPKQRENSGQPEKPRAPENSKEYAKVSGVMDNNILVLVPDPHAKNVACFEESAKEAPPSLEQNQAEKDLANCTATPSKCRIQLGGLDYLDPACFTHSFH

T6: mouse PRLR on HEK293 cells (mouse, UniProt Q08501 20-608)
T6 construct: whole, on cells; also called mPRLR; HEK293/mPRLR
T6 sequence (looked up): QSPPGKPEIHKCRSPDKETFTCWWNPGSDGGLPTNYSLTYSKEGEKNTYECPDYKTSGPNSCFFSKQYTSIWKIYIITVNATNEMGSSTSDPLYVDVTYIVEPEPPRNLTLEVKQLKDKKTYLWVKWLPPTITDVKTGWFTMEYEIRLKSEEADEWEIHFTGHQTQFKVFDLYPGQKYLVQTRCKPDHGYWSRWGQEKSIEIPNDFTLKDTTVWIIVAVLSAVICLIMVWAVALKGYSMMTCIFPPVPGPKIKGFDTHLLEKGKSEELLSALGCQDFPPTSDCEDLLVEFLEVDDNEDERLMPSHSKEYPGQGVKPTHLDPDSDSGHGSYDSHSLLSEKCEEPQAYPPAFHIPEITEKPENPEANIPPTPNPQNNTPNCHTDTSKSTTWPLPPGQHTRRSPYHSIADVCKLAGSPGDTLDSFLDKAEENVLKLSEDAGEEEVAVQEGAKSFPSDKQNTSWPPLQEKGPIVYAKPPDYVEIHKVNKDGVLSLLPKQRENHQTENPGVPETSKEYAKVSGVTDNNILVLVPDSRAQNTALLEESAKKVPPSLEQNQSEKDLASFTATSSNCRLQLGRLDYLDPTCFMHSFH


Tests used:
[1] = target: T1, human prolactin receptor (PRLR) on cells; experiment: FACS, HEK293/hPRLR cells; also: test concentration or dose not given here
[2] = target: T1, human prolactin receptor (PRLR) on cells; experiment: cell-based or functional assay
[3] = target: T2, hPRLR.mFc (soluble dimeric human PRLR); experiment: SPR, 37C, mAb capture
Protocol: (§1) Measurements were conducted on a T200 Biacore instrument. Kinetic association (kₐ) and dissociation (kd) rate constants were determined by processing and fitting the data to a 1:1 binding model using Scrubber 2.0 curve fitting software. Binding dissociation equilibrium constants (KD) and dissociative half-lives (t_{1/2}) were calculated from the kinetic rate constants as: KD (M)=kd/kₐ; and […].

[4] = target: T3, mfPRLR.mmh (soluble monomeric macaca …); experiment: SPR, 37C, mAb capture
Protocol: as §1

[5] = target: T4, hPRLR.mmh (soluble monomeric human PRLR); experiment: SPR, 37C, mAb capture
Protocol: as §1

[6] = target: T1, human prolactin receptor (PRLR) on cells; experiment: FACS, T47D cells (native PRLR); also: test concentration or dose not given here
[7] = target: T5, monkey (macaca fascicularis) PRLR on …; experiment: FACS, HEK293/mfPRLR cells; also: test concentration or dose not given here
[8] = target: T6, mouse PRLR on HEK293 cells; experiment: FACS, HEK293/mPRLR cells; also: test concentration or dose not given here

FACS Cell Binding (Fold Above Background) [1] [fold above background]	% Internalization relative to Control I (alexa488 intensity in intracellular vesicles at 37 C, T47D cells) [2] [%]	T½ [3] [min]	T½ [4] [min]	T½ [5] [min]	FACS Cell Binding (Fold Above Background) [6] [fold above background]	FACS Cell Binding (Fold Above Background) [7] [fold above background]	FACS Cell Binding (Fold Above Background) [8] [fold above background]	Binder
1	151	149	2	2	34	22	1	H1H6795P (antibody, human IgG1, V domains shown, human IgG1 Fc (H1H)) VH: QVQLVQSGAEVKKPGASVKVSCKASGYTFGTSGITWVRQAPGQGLEWMGWSSAYNGKTDYAQKFQDRVTMTTDTSTTTGYMEMRSLTSDDTAVYYCTTVVRRPFDFWGQGTLVTVSS VL: DIQMTQSPSSLSASVGDRVTITCRASQDINNFLAWFQQKPGKAPKSLIYAASSLQSGVPSKFSGGGSGTDFALTISSLQPEDFATYYCQQYSSYPITFGQGTRLEIK
38	169	119	7.1	12.4	41	28	2	H1H6967N (antibody, human IgG1, V domains shown, also called H2M6967N) VH: EVQLVESGGDLVHPGRSLRLSCAASGFPFDEYAMHWVRQVPGKGLEWVSGISWSNNNIGYADSVKGRFTISRDNAKNSLYLQMNSLRPEDTAFYYCAKSGIFDSWGQGTLVTVSS VL: EIVMTQSPATLSVSPGERATLSCRASQSVSRDLAWYQQKPGQAPRLLIHGASTRATGIPARFSGSGSGAEFTLIISSLQSEDFAVYYCQQYNNWPLTFGGGTKVEIK
37	154	68	4.5	9.4	40	29	2	H1H6953N (antibody, human IgG1, V domains shown, also called H1M6953N) VH: EVQLLESGGGLVQPGGTLRLSCAASGFTFSAYAMSWVRQAPGKGLEWVSSINVRAGDTYYADSVKGRFTISRDNSKNTLFLLMNSLRAEDTAAYYCAKARYSSNWGFDFWGQGTLVTVSS VL: DIVMTQSPDSLTVSLGARTTINCQSSQTILHSSNNHNYLAWYQQKPGLPPKLLIYWSSTRESGVPDRFSGSGSGTDFTLTISSLQAEDVAIYYCQQYSNTPYTFGQGTKLEIN

Continued, binder first:

Binder	FACS Cell Binding (Fold Above Background) [1] [fold above background]	% Internalization relative to Control I (alexa488 intensity in intracellular vesicles at 37 C, T47D cells) [2] [%]	T½ [3] [min]	T½ [4] [min]	T½ [5] [min]	FACS Cell Binding (Fold Above Background) [6] [fold above background]	FACS Cell Binding (Fold Above Background) [7] [fold above background]	FACS Cell Binding (Fold Above Background) [8] [fold above background]
H1H6783P (antibody, human IgG1, V domains shown, human IgG1 Fc (H1H)) VH: QVQLQQSGPGLVKPSQTLSLTCAISGDSVSSNTFAWNWIRQSPSRGLEWLGRTYYRSKWYIDYAESVKSRITITPDTSKNQFSLQLNSVTPEDTALYYCAGGYTYAPRGAFDIWGQGTMVTVSS VL: not shown	37	161	83	9	7	38	27	1
H1H6774P (antibody, human IgG1, V domains shown, human IgG1 Fc (H1H)) VH: EVQLVESGGGLAQPGGSLRLSCVASGFTFSTYWMSWVRQAPGKGLDWVGNIKQDGSEQNYVDSVRGRFTISRDNAKNSLFLQMNSLRAEDTGVYYCATLLTKGDYWGQGTLVTVSS VL: DIQMTQSPSSLSASVGDSVTITCRASQDISNYLDWFQQKPGKAPKSLIYAASILQGGVPSRFSGSGYGTDFTLTISSLQPEDFATYYCRQYKTYPFTFGPGTKVDIK	1	162	60	3	4	39	29	1
H1H6781P (antibody, human IgG1, V domains shown, human IgG1 Fc (H1H)) VH: EVQLVESGGDLVQPGESLRLSCTASGFTFNSYEMNWVRQAPGKGLEWVSYISSSGGTKYYVDSVKGRFTISRDNAKKSLYLQMNSLRADDTALYYCARLNGVDVFDIWGQGTMVTVSS VL: DIQMTQSPSSLSASVGDRVTITCRASQDIFNYLAWFQQKPGKVPELLISAASTLQSGVPSRFSGSGSGTYFTLTISSLQPEDIATYYCQRYNSAPLTFGGGTKVEIK	37	165	117	43	37	40	26	1
H1H6792P (antibody, human IgG1, V domains shown, human IgG1 Fc (H1H)) VH: EVQLVESGGGLVQPGRSLRLSCAASGFTLDDHAVHWVRQAPGKGLEWVSGISWNSVYIDYADSVKGRFTIFRDNAKNSLYLQMNSLRAEDTAFYYCARDIEGARDYWGQGTLVTVSS VL: DIQMTQSPSSLSASVGDRVTITCRASQGIRNDLGWYQQKPGKAPKRLIYAASSLQSGVPSRFSGSGYGTEFTLTISSLQPEDFAPYYCLQHNSYPLTFGGGTKVEIK	37	156	66	4	5	37	28	3
